Target: human tissue plasminogen activator (TPA) (human, UniProt P00750 36-562)
Assay: cell-based or functional assay

Chain of human tissue plasminogen activator (TPA) (P00750 36-562 limits assumed): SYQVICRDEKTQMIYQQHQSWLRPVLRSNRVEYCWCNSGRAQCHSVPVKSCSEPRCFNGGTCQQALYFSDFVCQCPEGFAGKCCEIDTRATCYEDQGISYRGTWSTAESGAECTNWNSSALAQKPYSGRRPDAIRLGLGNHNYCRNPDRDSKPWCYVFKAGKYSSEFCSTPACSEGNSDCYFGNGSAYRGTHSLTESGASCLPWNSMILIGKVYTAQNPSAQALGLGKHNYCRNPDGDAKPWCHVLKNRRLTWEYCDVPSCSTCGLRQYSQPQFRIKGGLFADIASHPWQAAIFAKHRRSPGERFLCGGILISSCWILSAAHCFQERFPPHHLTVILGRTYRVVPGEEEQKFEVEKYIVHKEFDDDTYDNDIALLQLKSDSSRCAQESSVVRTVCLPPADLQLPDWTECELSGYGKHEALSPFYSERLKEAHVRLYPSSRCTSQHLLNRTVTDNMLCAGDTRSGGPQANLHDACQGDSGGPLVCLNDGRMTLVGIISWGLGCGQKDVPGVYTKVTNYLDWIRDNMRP

B1: stable mutant human PAI-1 (four amino acid substitutions, N150H, K154T, Q319L, and M354I) (other, UniProt P05121 24-402, looked up)
chain: VHHPPSYVAHLASDFGVRVFQQVAQASKDRNVVFSPYGVASVLAMLQLTTGGETQQQIQAAMGFKIDDKGMAPALRHLYKELMGPWNKDEISTTDAIFVQRDLKLVQGFMPHFFRLFRSTVKQVDFSEVERARFIINDWVKTHTKGMISHLLGTGAVDQLTRLVLVNALYFNGQWKTPFPDSSTHRRLFHKSDGSTVSVPMMAQTNKFNYTEFTTPDGHYYDILELPYHGDTLSMFIAAPYEKEVPLSALTNILSAQLISHWKGNMTRLPRLLVLPKFSLETEVDLRKPLENLGMTDMFRQFQADFTSLSDQEPLHVALALQKVKIEVNESGTVASSSTAVIVSARMAPEEIIIDRPFLFVVRHNPTGTVLFMGQVMEP
For B1, the “IC50, inhibition of TPA-induced fibrinolysis of human plasma clots (0.5 nM TPA, 2 hrs)” value was 4.53 nM.
